We go through 3 molecules from paper PMC5463365, “Assembly and use of high-density recombinant peptide chips for large-scale ligand screening is a practical alternative to synthetic peptide libraries” (BMC Genomics, 2017).

Where no end group is shown, it is not given here.

Experiment [1] has as its target T1, Streptavidin on Streptavidin-coated biosensors (UniProt P22629 25-183).
T1 construct: Streptavidin coated on disposable biosensors; also called Streptavidin biosensors; source: bought: Streptavidin-coated biosensors for ForteBio's BLItz system
The experiment in a line: BLI; BLItz system; Streptavidin-coated biosensors exposed to chemically synthesized 5'FAM peptides for 2 min in ES2 buffer; only a single analyte concentration tested. The following applies: both partners purified. (BLI is a label-free optical method that tracks binding on a fibre tip over time.)

In experiment [2] the target is T2, Recombinant Streptavidin, unconjugated (UniProt P22629 25-183).
T2 construct: Streptavidin, commercial recombinant protein; Used in the fluorescence polarisation assays; source: bought: recombinant, unconjugated format (Thermo Fisher Scientific, BioRad or Perkin Elmer, 'respectively')
T2 sequence (P22629 25-183): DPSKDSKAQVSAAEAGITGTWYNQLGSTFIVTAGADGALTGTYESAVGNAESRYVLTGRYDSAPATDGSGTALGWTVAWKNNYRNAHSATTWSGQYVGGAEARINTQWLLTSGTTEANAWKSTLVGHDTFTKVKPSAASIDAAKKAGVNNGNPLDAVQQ
The experiment in a line: fluorescence polarisation; 20 nM 5'FAM-labeled peptide with rising concentrations of Streptavidin/StrepTactin, triplicates; ES2 buffer (100 mM potassium phosphate pH 7.4, 100 μg/ml bovine γ globulin, 0.02% NaN3); at least 2 h at RT or o/n at 4 °C. The following applies: both partners purified.

T1 sequence (P22629 25-183): as above

Consider {FAM}-VSHPQAPF (B5; source: synthetic peptide) [5'FAM-labeled B5 peptide], for which the Kd in experiment [1] stood at 79.5 µM. In the case of {FAM}-WSHPQFEK (Strep-tag II; source: synthetic peptide) [5'FAM-labeled Strep-tag II peptide], the Kd is 25.4 µM in experiment [1] and 13.3 µM in experiment [2].

B1: 5'FAM-labeled Strep-tag I peptide (peptide)
peptide: {FAM}-AWRHPQFGG
notes: Strep-tag I; source: synthetic peptide (GenScript Inc.)
B1: the dissociation constant (Kd) in experiment [2] came out at 2.75 µM.

Broadly, the Kd is the constant that tells how readily two partners part at equilibrium.
